Measured values from publication PMC7337897.

Biological target: E2F1 (UniProt Q01094)
Assay: proximity ligation; in situ PLA in fixed, permeabilised H1299 cells, under normal (EV) and GAr-induced mRNA translation stress conditions; Duolink PLA kit; the antibodies of the protein-protein PLA are not told

Sequence of UniProt Q01094 (Q01094 whole entry): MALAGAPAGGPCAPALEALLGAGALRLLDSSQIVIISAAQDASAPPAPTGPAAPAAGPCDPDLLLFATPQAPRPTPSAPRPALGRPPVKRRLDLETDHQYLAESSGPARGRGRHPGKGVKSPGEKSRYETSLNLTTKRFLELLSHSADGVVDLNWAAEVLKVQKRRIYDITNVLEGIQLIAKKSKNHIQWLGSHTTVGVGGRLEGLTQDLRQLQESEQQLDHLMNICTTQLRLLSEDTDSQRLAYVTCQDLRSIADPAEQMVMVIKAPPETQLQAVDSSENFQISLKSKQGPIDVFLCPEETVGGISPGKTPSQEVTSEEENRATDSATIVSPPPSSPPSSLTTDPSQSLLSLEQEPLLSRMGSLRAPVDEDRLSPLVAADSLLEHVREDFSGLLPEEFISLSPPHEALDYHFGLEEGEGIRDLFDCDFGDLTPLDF

PLA interactions per cell (interactions per cell): 20
Substance: MDM2 (from UniProt Q00987 1-491) (natural protein)
